Measured values published in IntAct's records for PubMed 18423203.

B1: Peripheral plasma membrane protein CASK (Homo sapiens), O14936 (parent)
chain: MADDDVLFEDVYELCEVIGKGPFSVVRRCINRETGQQFAVKIVDVAKFTSSPGLSTEDLKREASICHMLKHPHIVELLETYSSDGMLYMVFEFMDGADLCFEIVKRADAGFVYSEAVASHYMRQILEALRYCHDNNIIHRDVKPHCVLLASKENSAPVKLGGFGVAIQLGESGLVAGGRVGTPHFMAPEVVKREPYGKPVDVWGCGVILFILLSGCLPFYGTKERLFEGIIKGKYKMNPRQWSHISESAKDLVRRMLMLDPAERITVYEALNHPWLKERDRYAYKIHLPETVEQLRKFNARRKLKGAVLAAVSSHKFNSFYGDPPEELPDFSEDPTSSGLLAAERAVSQVLDSLEEIHALTDCSEKDLDFLHSVFQDQHLHTLLDLYDKINTKSSPQIRNPPSDAVQRAKEVLEEISCYPENNDAKELKRILTQPHFMALLQTHDVVAHEVYSDEALRVTPPPTSPYLNGDSPESANGDMDMENVTRVRLVQFQKNTDEPMGITLKMNELNHCIVARIMHGGMIHRQGTLHVGDEIREINGISVANQTVEQLQKMLREMRGSITFKIVPSYRTQSSSCERDSPSTSRQSPANGHSSTNNSVSDLPSTTQPKGRQIYVRAQFEYDPAKDDLIPCKEAGIRFRVGDIIQIISKDDHNWWQGKLENSKNGTAGLIPSPELQEWRVACIAMEKTKQEQQASCTWFGKKKKQYKDKYLAKHNAVFDQLDLVTYEEVVKLPAFKRKTLVLLGAHGVGRRHIKNTLITKHPDRFAYPIPHTTRPPKKDEENGKNYYFVSHDQMMQDISNNEYLEYGSHEDAMYGTKLETIRKIHEQGLIAILDVEPQALKVLRTAEFAPFVVFIAAPTITPGLNEDESLQRLQKESDILQRTYAHYFDLTIINNEIDETIRHLEEAVELVCTAPQWVPVSWVY

Variants of: B1
Conditions: with nrx1b_rat Nrxn1, Q63373
Sequence of nrx1b_rat Nrxn1, Q63373 (Q63373 whole entry): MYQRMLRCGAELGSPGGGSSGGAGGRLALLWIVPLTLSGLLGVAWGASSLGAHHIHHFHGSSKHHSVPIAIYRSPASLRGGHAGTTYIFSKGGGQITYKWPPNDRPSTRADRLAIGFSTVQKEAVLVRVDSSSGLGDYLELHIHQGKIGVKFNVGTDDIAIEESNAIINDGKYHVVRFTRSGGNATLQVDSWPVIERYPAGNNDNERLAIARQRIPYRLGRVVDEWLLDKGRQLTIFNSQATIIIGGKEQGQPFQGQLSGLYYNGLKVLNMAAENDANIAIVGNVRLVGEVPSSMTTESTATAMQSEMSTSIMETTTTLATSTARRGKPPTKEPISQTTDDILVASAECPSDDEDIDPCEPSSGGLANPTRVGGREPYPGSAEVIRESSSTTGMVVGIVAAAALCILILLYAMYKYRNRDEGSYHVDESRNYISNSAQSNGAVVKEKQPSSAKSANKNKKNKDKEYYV

Row | Variant | effect of a mutation on the interaction
1 | S24D;V26L | decreasing interaction
